Experimental data as given in patent publication CN111484554A (YINGWEIFUSAI BIOTECHNOLOGY CO LTD, dated 2020).

B1: 人源化11B6-hu-a抗体 (antibody, human IgG4 S228P, kappa, V domains shown)
VH: QVQLVQSGAEVKKPGSSVKVSCKASGYTFTSYWINWVRQAPGQGLEWIGNIYPSDSYTNYNQKFQGRVTITADESTSTAYMELSSLRSEDTAVYYCTRESQTGTGYYAMDYWGQGTLVTVSS
VL: DIQMTQSPSSLSASVGDRVTITCQASQDISNYLNWYQQKPGKAPKLLIYYTSRLHSGVPSRFSGSGSGTDFTFTISSLQPEDIATYYCQQGNTLPWTFGGGTKLEIKR
B2: 人源化11B6-hu-b抗体 (antibody, human IgG4 S228P, kappa, V domains shown)
VH: QVQLVQSGAEVKKPGASVKVSCKASGYTFTSYWINWVRQAPGQGLEWIGNIYPSDSYTNYNQKFQGRVTMTRDTSTSTVYMELSSLRSEDTAVYYCTRESQTGTGYYAMDYWGQGTLVTVSS
VL: DIQMTQSPSSLSASVGDRVTITCRASQDISNYLNWYQQKPGKAPKLLIYYTSRLHSGVPSRFSGSGSGTDFTLTISSLQPEDFATYYCQQGNTLPWTFGQGTKVEIKR
B3: 11B6嵌合抗体 (antibody, human IgG4 S228P, kappa, V domains shown)
VH: QVQLQQPGAELVRPGASVKLSCKASGYTFTSYWINWVKQRPGQGLEWIGNIYPSDSYTNYNQKFKDKATLTVDKSSSTAYMQLSSPTSEDSAVYYCTRESQTGTGYYAMDYWGQGTSVTVSS
VL: DIQMTQTTSSLSASLGDRVTISCRASQDISNYLNWYQQKPDGTVKLLIYYTSRLHSGVPSRFSGSGSGTDYSLTISNLEQEDIATYFCQQGNTLPWTFGGGTKLEIKR
notes: Mouse 11B6 variable regions on a human IgG4 constant region and a human kappa constant region; also called 11B6 chimeric antibody

target: T1, 4-1BB(24-180)-His重组蛋白 (4-1BB胞外段24-180位氨基酸, C端6个His) (UniProt Q07011 24-180); test: SPR, antibody captured on Protein A chip, 4-1BB protein 6.25-400 nM as analyte
T1 construct: range 24-180; Human is implied by the human therapeutic context; The monomer was used for immunisation and the ELISA screen; also called 4-1BB-His蛋白; 4-1BB蛋白

Row | Binder | Kd [nM]
1 | B1 | 5.84
2 | B2 | 9
3 | B3 | 3.75
